Test results published in patent US11407825B2, “NaPi2b-targeted polymer antibody-drug conjugates and methods of use thereof” (Mersana Therapeutics, Inc., priority 2018, dated 2022).

What was measured:
NaPi2b expressing tumors = test: Phase 1b study of XMT-1536: tumor response per RECIST version 1.1; assay type: in vivo, human; details: for decrease in diameter of target lesions: DL4A (20 mg/m^2)
Excerpt: The study presented herein is an open label, multi-center Phase 1b study of XMT-1536 administered as an intravenous infusion once every three or four weeks. The dose escalation (DES) part of the study will establish the maximum tolerated dose (MTD) or recommended Phase 2 dose (RP2D) for XMT-1536 in patients with a number of tumor types likely to express NaPi2b, with a focus on patients with platinum-resistant ovarian cancer and non-squamous non-small cell lung cancer (NSCLC). […] The RP2D may differ from the MTD and may take into account tolerability, pharmacokinetic and pharmacodynamic measures, and efficacy of XMT-1536 based on RECIST 1.1. After the first cycle, patients may continue to receive XMT-1536 until disease progression provided the drug is well-tolerated and patients continue to derive clinical benefit in the opinion of the Investigator. The DES segment of the study utilized an accelerated titration design. The first 3-week cycle of treatment constitutes the dose limiting toxicity (DLT) evaluation period. For the first two dose levels, a minimum of 1 patient was treated at each dose level. If this patient experiences a treatment-emergent adverse event of Grade 2 or higher, 2 additional patients will be added at this dose level, and the study will subsequently follow a 3+3 design, as described below. […] Starting with Dose Level 3, the study will follow a standard 3+3 design, with 3 patients enrolled initially at each dose level. […] However, in the event of 1 DLT, 3 additional patients will be enrolled at the same dose level. Any dose level with 2 or more DLTs will be considered to exceed the MTD and subsequent patients will be enrolled at lower dose level(s). After the first cycle, patients may continue to receive XMT-1536 until disease progression if the drug is well-tolerated and patients continue to derive clinical benefit in the opinion of the Investigator.
All adverse events will be graded according to the National Cancer Institute (NCI) Common Terminology Criteria version (CTCAE v4.03). The observation period for DLTs is 56 days, between Day 1 through end of Cycle 2 which includes the pre-dose assessments before receiving the Cycle 3 dose. In general, adverse events Grade ≥3 are DLTs with modifications for the following criteria: neutropenia hematologic toxicities, gastrointestinal toxicities, hepatic toxicities, and electrolyte imbalances. XMT-1536-related toxicity that delays initiation of Cycle 3 by more than 2 weeks, hospitalization to treat an infusion-related reaction, and any toxicity that prompts modification of the dose to be administered in Cycle 3 are also DLTs. Blood sampling will be performed to determine plasma PK parameters of XMT-1536, its release product auristatin F-HPA, and select metabolites. Testing for anti-drug antibodies (ADA) and neutralizing antibodies (nAb) will be performed. Tumor responses will be Investigator-assessed using Response Evaluation Criteria in Solid Tumors (RECIST), version 1.1, at the end of Cycle 2 and every 2 cycles thereafter.
In both segments of the study assessments with computerized tomography (CT) scans and RECIST version 1.1 criteria are performed at the end of Cycle 2 and at the end of every even-numbered cycle thereafter. Patients are continuously evaluated for adverse events, the use of concomitant medications, and the occurrence of infusion reactions in any cycle. Pharmacokinetic profiles of XMT-1536 and select release products/metabolites and the development of anti-drug antibodies are evaluated. RECIST version 1.1, is used to measure tumor response. The objective response rate (ORR—rate of complete response [CR] and partial response [PR]) and disease control rate (DCR—rate of CR, PR, and stable disease [SD]) will be measured for each cohort. Response duration, progression-free survival (PFS) and overall survival (OS) is estimated.
The primary analysis of efficacy is performed using both DES and EXP data. […]

[1] = Plasma PK profile in patients dosed with XMT-1536; assay type: in vivo, human; details: 30 patients, 3 to 40 mg/m^2, total antibody, conjugated drug, free drug, AF
Experimental: The PK profile of the active ingredient of XMT-1536, its release product and selected metabolites are determined for each patient by non-compartmental analysis using standard PK software (e.g., Phoenix WinNonlin). PK parameters per patient include time of maximum observed concentration (tmax), maximum concentration (Cmax), and area under the concentration curve for the last measurable concentration (AUC0-last). When the terminal elimination phase is identified, additional parameters such as elimination half-life, clearance, and volume of distribution are determined.
The plasma PK profile for the analytes (total antibody; conjugated drug (AF-HPA); free drug (AF-HPA) and the drug metabolite auristatin F (AF)) was determined in blood samples from 30 patients (3 mg/m^2, n=1; 6 mg/m^2, n=1; 12 mg/m^2, n=7; 20 mg/m^2, n=15; 30 mg/m^2, n=5; 40 mg/m^2, n=1). […] The PK characteristics is consistent with that reported for other approved antibody-drug conjugates or those currently in clinical development.

[2] = All NSCLC, N 3, RECIST version 1.1
[3] = All Ovarian Cancer (OC), N 19, RECIST version 1.1
[4] = NSCLC ≥ 20 mg/m^2, N 2, RECIST version 1.1
[5] = OC + NSCLC ≥ 20 mg/m^2, N 18, RECIST version 1.1
[6] = OC ≥ 20 mg/m^2, N 16, RECIST version 1.1
[7] = OC ≥ 30 mg/m^2, N 7, RECIST version 1.1
[8] = ovarian cancer and lung adenocarcinoma, ≥20 mg/m^2 (N=18)

B1: XMT-1536: about 10-15 molecules of auristatin F-hydroxypropyl amide conjugated to a cysteine moiety of NaPi2b monoclonal antibody XMT-1535 via a PHF scaffold (conjugate, chains of the INN, looked up)
VH: QVQLVQSGAEVVKPGASVKMSCKASGYTFTGYNIHWVKQAPGQGLEWIGAIYPGNGDTSYKQKFRGRATLTADTSTSTVYMELSSLRSEDSAVYYCARGETARATFAYWGQGTLVTVSS
VL: DIQMTQSPSSLSASVGDRVTITCSASQDIGNFLNWYQQKPGKTVKVLIYYTSSLYSGVPSRFSGSGSGTDYTLTISSLQPEDFATYYCQQYSKLPLTFGQGTKLELK
modifications: auristatin F-hydroxypropyl amide via PHF scaffold
notes: about 10-15 molecules of auristatin F-hydroxypropyl amide conjugated to a cysteine moiety of NaPi2b monoclonal antibody XMT-1535 via a PHF scaffold
NaPi2b expressing tumors; All NSCLC, N 3
  DCR (PR + SD): 67%
  DCR (PR + SD), patients: 2
NaPi2b expressing tumors; [2]
  PD: 33%
  PD, patients: 1
  PR: 0 (0%)
  PR, patients: 0 (0%)
NaPi2b expressing tumors; All Ovarian Cancer (OC), N 19
  DCR (PR + SD): 58%
  DCR (PR + SD), patients: 11
NaPi2b expressing tumors; [3]
  PD: 42%
  PD, patients: 8
  PR: 16%
  PR, patients: 3
NaPi2b expressing tumors; DL 4A
  patients who reached partial remission: one
NaPi2b expressing tumors; NSCLC ≥ 20 mg/m^2, N 2
  DCR (PR + SD): 100%
  DCR (PR + SD), patients: 2
NaPi2b expressing tumors; [4]
  PD: 0 (0%)
  PD, patients: 0 (0%)
  PR: 0 (0%)
  PR, patients: 0 (0%)
NaPi2b expressing tumors; OC + NSCLC ≥ 20 mg/m^2, N 18
  DCR (PR + SD): 61%
  DCR (PR + SD), patients: 11
NaPi2b expressing tumors; [5]
  PD: 39%
  PD, patients: 7
  PR: 17%
  PR, patients: 3
NaPi2b expressing tumors; OC ≥ 20 mg/m^2, N 16
  DCR (PR + SD): 57%
  DCR (PR + SD), patients: 9
NaPi2b expressing tumors; [6]
  PD: 43%
  PD, patients: 7
  PR: 19%
  PR, patients: 3
NaPi2b expressing tumors; OC ≥ 30 mg/m^2, N 7
  DCR (PR + SD): 71%
  DCR (PR + SD), patients: 5
NaPi2b expressing tumors; [7]
  PD: 28%
  PD, patients: 2
  PR: 28%
  PR, patients: 2
NaPi2b expressing tumors; change in tumor size by dose level
  dose response of best response by RECIST (waterfall plot): there appears to be a dose response
NaPi2b expressing tumors; conclusions
  anti-tumor activity: early signs of anti-tumor activity
NaPi2b expressing tumors; doses of 20 mg/m^2 and higher
  objective responses: Objective responses have been observed
NaPi2b expressing tumors; doses of 20 mg/m^2 or higher
  clinical activity based on objective responses and duration of treatment: clinical activity was observed
NaPi2b expressing tumors; [8]
  DCR: 61%
  ORR: 17%
  PRs: 17%
  PRs, patients: 3
  SDs: 44%
  SDs, patients: 8
NaPi2b expressing tumors; patients treated with at least 12 mg/m^2, every three weeks, RECIST version 1.1
  disease control rate: 67%
NaPi2b expressing tumors; person, platinum-resistant high-grade serous ovarian cancer, end of Cycle 2
  decrease in diameter of target lesions: 40%
NaPi2b expressing tumors; same patient, end of Cycle 3
  decrease in diameter of target lesions: 75%
NaPi2b expressing tumors; starting at DL 5
  patients who reached nearly partial remission: two
NaPi2b expressing tumors; ten patients with post-treatment restaging scans, as of February 2019
  patients with stable disease (SD) as best response: 9
NaPi2b expressing tumors; time on study by dose level and tumor type
  outcome by dose level (swimmers plot): At lower doses the majority of patients came off study because of progressive disease, but starting at DL4, most patients had stable disease
[1]
  exposure with increasing doses, normalized to dose: nearly dose proportional
